Results as given in patent publication US20220308072A1.

Columns and labels:
[1] = target: Recombinant, his tagged full length human frataxin protein (Abcam ab95502) (human) (UniProt Q16595); assay: Simoa sandwich 3-step; capture Ab-2
[2] = target: Recombinant, his tagged full length human frataxin protein (Abcam ab95502) (human) (UniProt Q16595); assay: Simoa sandwich 3-step; capture Ab-4
[3] = target: Recombinant, his tagged full length human frataxin protein (Abcam ab95502) (human) (UniProt Q16595); assay: Simoa sandwich 2-step; capture Ab-1
[4] = target: Recombinant, his tagged full length human frataxin protein (Abcam ab95502) (human) (UniProt Q16595); assay: Simoa sandwich; capture Ab-1; no helper beads
[5] = target: Recombinant, his tagged full length human frataxin protein (Abcam ab95502) (human) (UniProt Q16595); assay: Simoa sandwich 3-step; capture Ab-4; frataxin 100 pg/mL
[6] = target: Recombinant, his tagged full length human frataxin protein (Abcam ab95502) (human) (UniProt Q16595); assay: Simoa sandwich 3-step; capture Ab-1; frataxin 100 pg/mL
[7] = target: Recombinant, his tagged full length human frataxin protein (Abcam ab95502) (human) (UniProt Q16595); assay: Simoa sandwich 3-step; capture Ab-2; frataxin 100 pg/mL
[8] = target: Recombinant, his tagged full length human frataxin protein (Abcam ab95502) (human) (UniProt Q16595); assay: Simoa sandwich 3-step; capture Ab-1; frataxin 100 pg/mL; remark: listed apart in the source
[9] = target: Recombinant, his tagged full length human frataxin protein (Abcam ab95502) (human) (UniProt Q16595); assay: Simoa sandwich 2-step; capture Ab-1; frataxin 1000 pg/mL
[10] = target: Recombinant, his tagged full length human frataxin protein (Abcam ab95502) (human) (UniProt Q16595); assay: Simoa sandwich 2-step; capture Ab-1; frataxin 55.6 pg/mL
[11] = target: Recombinant, his tagged full length human frataxin protein (Abcam ab95502) (human) (UniProt Q16595); assay: Simoa sandwich 2-step; capture Ab-1; frataxin 0.686 pg/mL
[12] = target: Recombinant, his tagged full length human frataxin protein (Abcam ab95502) (human) (UniProt Q16595); assay: Simoa sandwich 2-step; capture Ab-2; frataxin 0.686 pg/mL
[13] = target: Recombinant, his tagged full length human frataxin protein (Abcam ab95502) (human) (UniProt Q16595); assay: Simoa sandwich 2-step; capture Ab-1; 50 pM SβG; frataxin 500 pg/mL
[14] = target: Recombinant, his tagged full length human frataxin protein (Abcam ab95502) (human) (UniProt Q16595); assay: Simoa sandwich; capture Ab-1; no helper beads; frataxin 18.5 pg/mL
[15] = target: Recombinant, his tagged full length human frataxin protein (Abcam ab95502) (human) (UniProt Q16595); assay: Simoa sandwich; capture Ab-1; no helper beads; frataxin 2.06 pg/mL
[16] = target: Recombinant, his tagged full length human frataxin protein (Abcam ab95502) (human) (UniProt Q16595); assay: Simoa sandwich 2-step; capture Ab-1; 150 pM SβG; frataxin 500 pg/mL
[17] = target: Recombinant, his tagged full length human frataxin protein (Abcam ab95502) (human) (UniProt Q16595); assay: Simoa sandwich 2-step; capture Ab-1; 50 pM SβG; frataxin 0.686 pg/mL
[18] = target: Recombinant, his tagged full length human frataxin protein (Abcam ab95502) (human) (UniProt Q16595); assay: Simoa sandwich 2-step (120 min-5 min); capture Ab-1; Diluent 1 + 5% NCS
[19] = target: Recombinant, his tagged full length human frataxin protein (Abcam ab95502) (human) (UniProt Q16595); assay: Simoa sandwich 2-step (120 min-5 min); capture Ab-1; frataxin 74.1 pg/mL
[20] = target: Recombinant, his tagged full length human frataxin protein (Abcam ab95502) (human) (UniProt Q16595); assay: Simoa sandwich 2-step (35 min-5 min); capture Ab-1; with helper beads; frataxin 0.686 pg/mL
[21] = target: Recombinant, his tagged full length human frataxin protein (Abcam ab95502) (human) (UniProt Q16595); assay: Simoa sandwich 2-step (120 min-5 min); capture Ab-1; Diluent 1 + 5% NCS; frataxin 2.47 pg/mL
[22] = target: Recombinant, his tagged full length human frataxin protein (Abcam ab95502) (human) (UniProt Q16595); assay: Simoa sandwich 2-step (120 min-5 min); capture Ab-1; Diluent 1 + 5% NCS; frataxin 66.7 pg/mL
[23] = target: Recombinant, his tagged full length human frataxin protein (Abcam ab95502) (human) (UniProt Q16595); assay: Simoa sandwich 2-step (120 min-5 min); capture Ab-1; Diluent 1 + 10% NCS; frataxin 2.47 pg/mL
[24] = target: Recombinant, his tagged full length human frataxin protein (Abcam ab95502) (human) (UniProt Q16595); assay: Simoa sandwich 2-step (120 min-5 min); capture Ab-1; Diluent 1 + 10% NCS; frataxin 1000 pg/mL
[25] = target: Recombinant, his tagged full length human frataxin protein (Abcam ab95502) (human) (UniProt Q16595); assay: Simoa sandwich 2-step (120 min-5 min); capture Ab-1; Diluent 1 + 10% NCS; frataxin 12.3 pg/mL
[26] = target: Recombinant, his tagged full length human frataxin protein (Abcam ab95502) (human) (UniProt Q16595); assay: Simoa sandwich 2-step (120 min-5 min); capture Ab-1; Diluent 1 + 10% NCS; frataxin 0.823 pg/mL

Chain of UniProt Q16595 (Q16595 42-210): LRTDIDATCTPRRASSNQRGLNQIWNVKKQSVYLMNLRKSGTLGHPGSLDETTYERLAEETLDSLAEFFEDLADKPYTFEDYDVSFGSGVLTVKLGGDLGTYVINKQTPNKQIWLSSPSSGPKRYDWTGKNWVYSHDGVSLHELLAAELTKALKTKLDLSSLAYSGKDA

**Q.** For “Ab-3, mouse monoclonal [18A5DB1] to Frataxin (Abcam ab110328) (antibody)”, which LOD [1] is on record?
**A.** The LOD was 1.33 pg/mL.

**Q.** And the LOD [2]?
**A.** The LOD was 1.09 pg/mL.

**Q.** What about the LOD [3] of the same substance?
**A.** Its LOD is 0.28 pg/mL.

**Q.** What about the Estimated LLOQ [4] of the same substance?
**A.** Its Estimated LLOQ is 1.16 pg/mL.

**Q.** And the LOD [4]?
**A.** Its LOD is 0.551 pg/mL.

**Q.** And the Ave AEB [5]?
**A.** The Ave AEB was 1.05 AEB.

**Q.** And the S/B [5]?
**A.** The S/B was 21.9.

**Q.** And the Ave AEB [6]?
**A.** The Ave AEB was 2.47 AEB.

**Q.** And the S/B [6]?
**A.** Its S/B is 50.

**Q.** And the Ave AEB [7]?
**A.** Its Ave AEB is 2.44 AEB.

**Q.** What about the S/B [7] of the same substance?
**A.** Its S/B is 38.9.

**Q.** And the Ave AEB [8]?
**A.** The Ave AEB was 2.5 AEB.

**Q.** And the S/B [8]?
**A.** Its S/B is 42.3.

**Q.** And the Ave AEB [9]?
**A.** The Ave AEB was 30.7 AEB.

**Q.** What about the S/B [9] of the same substance?
**A.** The S/B was 384.

**Q.** What about the Ave AEB [10] of the same substance?
**A.** Its Ave AEB is 5.52 AEB.

**Q.** What about the S/B [10] of the same substance?
**A.** The S/B was 53.2.

**Q.** And the Ave AEB [11]?
**A.** Its Ave AEB is 0.165 AEB.

**Q.** And the S/B [11]?
**A.** The S/B was 1.59.

**Q.** What about the Ave AEB [12] of the same substance?
**A.** Its Ave AEB is 0.165 AEB.

**Q.** And the S/B [12]?
**A.** Its S/B is 1.73.

**Q.** And the Ave AEB [13]?
**A.** Its Ave AEB is 13.7 AEB.

**Q.** And the S/B [13]?
**A.** The S/B was 747.

**Q.** And the AEB Rep1 [14]?
**A.** Its AEB Rep1 is 0.363 AEB.

**Q.** And the AEB Rep2 [14]?
**A.** Its AEB Rep2 is 0.362 AEB.

**Q.** What about the Ave AEB [14] of the same substance?
**A.** Its Ave AEB is 0.363 AEB.

**Q.** What about the S/B [14] of the same substance?
**A.** The S/B was 16.

**Q.** And the AEB Rep1 [15]?
**A.** The AEB Rep1 was 0.0405 AEB.

**Q.** And the AEB Rep2 [15]?
**A.** The AEB Rep2 was 0.043 AEB.

**Q.** And the Ave AEB [15]?
**A.** Its Ave AEB is 0.0418 AEB.

**Q.** What about the S/B [15] of the same substance?
**A.** Its S/B is 1.85.

**Q.** What about the Ave AEB [16] of the same substance?
**A.** The Ave AEB was 23.7 AEB.

**Q.** What about the S/B [16] of the same substance?
**A.** The S/B was 527.

**Q.** What about the Ave AEB [17] of the same substance?
**A.** The Ave AEB was 0.0421 AEB.

**Q.** What about the S/B [17] of the same substance?
**A.** The S/B was 2.3.

**Q.** And the LOD [18]?
**A.** Its LOD is 0.268 pg/mL.

**Q.** What about the AEB rep1 [19] of the same substance?
**A.** The AEB rep1 was 0.357 AEB.

**Q.** What about the AEB rep2 [19] of the same substance?
**A.** Its AEB rep2 is 0.356 AEB.

**Q.** And the AEB rep3 [19]?
**A.** The AEB rep3 was 0.336 AEB.

**Q.** What about the Ave AEB [19] of the same substance?
**A.** Its Ave AEB is 0.35 AEB.

**Q.** And the S/B [19]?
**A.** Its S/B is 42.4.

**Q.** And the AEB Rep1 [20]?
**A.** The AEB Rep1 was 0.0586 AEB.

**Q.** And the AEB Rep2 [20]?
**A.** The AEB Rep2 was 0.0638 AEB.

**Q.** What about the Ave AEB [20] of the same substance?
**A.** The Ave AEB was 0.0612 AEB.

**Q.** What about the S/B [20] of the same substance?
**A.** Its S/B is 2.51.

**Q.** And the Ave AEB [21]?
**A.** The Ave AEB was 0.0609 AEB.

**Q.** And the S/B [21]?
**A.** Its S/B is 3.37.

**Q.** And the Ave AEB [22]?
**A.** The Ave AEB was 1.27 AEB.

**Q.** And the S/B [22]?
**A.** Its S/B is 70.5.

**Q.** And the Ave AEB [23]?
**A.** The Ave AEB was 0.0444 AEB.

**Q.** What about the S/B [23] of the same substance?
**A.** Its S/B is 2.44.

**Q.** What about the Ave AEB [24] of the same substance?
**A.** Its Ave AEB is 5.18 AEB.

**Q.** What about the S/B [24] of the same substance?
**A.** The S/B was 482.

**Q.** What about the Ave AEB [25] of the same substance?
**A.** The Ave AEB was 0.0631 AEB.

**Q.** What about the S/B [25] of the same substance?
**A.** The S/B was 5.87.

**Q.** What about the Ave AEB [26] of the same substance?
**A.** The Ave AEB was 0.0296 AEB.

**Q.** What about the S/B [26] of the same substance?
**A.** Its S/B is 1.63.
